Read-outs that look alike come from different tables or passages of the source.
Columns and labels:
[1] = target: L-type voltage-gated Ca2+ channel (TcL-VGCC) (Tetranychus cinnabarinus, UniProt A0A3Q9D0J7); test: voltage-clamp whole-cell current recording in Xenopus oocytes; assay type: cell-based
[2] = target: GST-fusion peptide of the wild-type IQ motif of T. cinnabarinus L-VGCC (Tetranychus cinnabarinus); test: pull-down
[3] = target: GST-fusion peptide CT1B (PreIQ and IQ) of T. cinnabarinus L-VGCC (Tetranychus cinnabarinus); test: pull-down
[4] = target: GST-fusion peptide of the N-terminal (NT) motif of T. cinnabarinus L-type voltage-gated Ca2+ channel (Tetranychus cinnabarinus); test: pull-down
[5] = target: GST-fusion peptide of the PreIQ motif of T. cinnabarinus L-VGCC (Tetranychus cinnabarinus); test: pull-down
[6] = target: GST-fusion peptide of the near-end C-terminal motif (CT1) of T. cinnabarinus L-VGCC (Tetranychus cinnabarinus); test: pull-down
[7] = target: GST-fusion peptide of the wild-type IQ motif of T. cinnabarinus L-VGCC (Tetranychus cinnabarinus); test: pull-down; remark: listed apart in the source

EC50 [1] [nM] | Kd [2] [nM] | stoichiometry N [3] | Kd [4] [nM] | Kd [5] [nM] | Kd [6] [nM] | Kd, two-site model, first printed value [6] [nM] | Kd, two-site model, second printed value [6] [nM] | stoichiometry N [6] | Kd [7] [nM] | percent increase of CaM1 binding in the presence of scoparone (5.54 μM) [7] [%] | Molecule
5540 | – | – | – | – | – | – | – | – | – | – | COc1cc2ccc(=O)oc2cc1OC [compound 1, scoparone]
– | 230 | > 1 | 112 | 85 | 931 | 2250 | 24 | > 1 | 430 | 47.1 | Tetranychus cinnabarinus calmodulin 1 (TcCaM1), recombinant, purified (natural protein)

Reference: PMC9091730 (Journal of Advanced Research, 2021)
